B1: mo735: well-known mouse-derived IgG2a monoclonal antibody 735 targeting polysialic acid (antibody, V domains shown)
VH: QIQLQQSGPELVRPGASVKISCKASGYTFTDYYIHWVKQRPGEGLEWIGWIYPGSGNTKYNEKFKGKATLTVDTSSSTAYMQLSSLTSEDSAVYFCARGGKFAMDYWGQGTSVTVSS
VL: DVVMTQTPLSLPVSLGDQASISCRSSQSLVHSNGNTYLYWYLQKPGQSPKPLIYRVSNRFSGVPDRFSGSGSGTDFTLKISRVEAEDLGVYFCFQGTHVPYTFGGGTRLEIK
B2: ch735: chimeric human IgG1 polySia-specific mAb made by swapping variable regions of mouse mAb 735 (antibody, V domains shown)
VH: QIQLQQSGPELVRPGASVKISCKASGYTFTDYYIHWVKQRPGEGLEWIGWIYPGSGNTKYNEKFKGKATLTVDTSSSTAYMQLSSLTSEDSAVYFCARGGKFAMDYWGQGTSVTVSS
VL: DVVMTQTPLSLPVSLGDQASISCRSSQSLVHSNGNTYLYWYLQKPGQSPKPLIYRVSNRFSGVPDRFSGSGSGTDFTLKISRVEAEDLGVYFCFQGTHVPYTFGGGTRLEIK

How the values were obtained:
Assay type in all cases: cell-based, human
[1] = tested on: SW2 cells; assay: Colocalization microscopy, SW2; conditions: transferrin and LAMP-3 markers
Method: FIGS. 12A-12C depict colocalization of mo735 with markers that traffic to endolysosomal compartments. […] For LAMP-1 (right), confocal microscopic images were taken after labeling SH-SY5Y cells with ch735 or isotype antibody for 2 h. Following fixation and permeabilization, LAMP-1 antibody was applied and detected with anti-rabbit AF647 secondary. Anti-human IgG AF488 was used to detect ch735 or isotype antibody. […] Cross-sectional fluorescence profiles are shown at right with normalized pixel intensity for selected cells (marked with box in left confocal panels) versus distance across the cell for representative cross sections (marked with bar in right confocal panels).
SH—SY5Y or SW2 cells were plated at 20,000 cells/cm^2 on poly-L-lysine coated 35 mm glass bottom dishes and adhered overnight. To remove polySia, cells were treated as described above. To measure receptor-antibody internalization, cells were incubated with 150 nM AF488 labeled ch735, human IgG isotype control (ThermoFisher Scientific), mo735, or mouse IgG isotype control (anti-MBP mAb, NEB) and 100 nM AF647 transferrin or AF647 anti-LAMP-3 antibody (Santa Cruz) for 1 h. Cells were washed and then fixed as described above. […] The fluorescence intensity of the plot profile was analyzed using FIJI software. Fluorescence intensity was normalized to the maximum value for each channel.

[2] = tested on: ST8SiaIV KO SW2 cells; assay: Flow cytometry binding to ST8SiaIV knockout cells
Excerpt: FIGS. 8A-8C depict binding of polySia-specific mAb to ST8SiaII and ST8SiaIV knockout cell lines. […] Data are the geometric mean fluorescence intensity (MFI), with the values reported as the average of three replicates and the error represented as the standard deviation of the mean. […] In the ST8SiaII KO SW2 cells, 73% of the population (FL1-H-) binds mo735 below the level of the wild-type SW2 cells. […] In the ST8SiaIV KO SW2 cells, 68% of the population (FL1-H-) binds mo735 below the level of the wild-type SW2 cells.
CRISPR guide RNAs targeting ST8SiaII (crRNA1: […]; SEQ ID NO: 5) and ST8Sia4 (crRNA1: […]; SEQ ID NO: 6) were purchased from Genscript in the pLentiCRISPR v2 vector. Knockout cell lines were generated in SW2 cells using protocols described by Zhang and colleagues (Shalem et al., “Genome-Scale CRISPR-Cas9 Knockout Screening in Human Cells,” Science 343:84-7 (2014), which is hereby incorporated by reference in its entirety). Briefly, after lentiviral transduction, cells were maintained under selection with 1 μg/mL puromycin for at least 14 days prior to analysis by flow cytometry.
Cancer cells were trypsinized and collected with media, followed by three washes in PBS. […] Cells were washed three times, resuspended in 500 μL of 0.5% BSA in PBS, and analyzed on a BD FACSCalibur flow cytometer using Cell Quest Pro software (BD Biosciences).

[3] = tested on: SH-SY5Y cells; assay: Colocalization microscopy, SH-SY5Y; conditions: transferrin, LAMP-3, LAMP-1 markers
Method: FIGS. 10A-10E depict internalization of ch735 into polySia-positive cancer cells. […] Nuclei were stained by Hoescht (blue). Scale bar, 10 Fluorescence intensity was measured across the dotted line and normalized to the maximum value in each channel. Arrows indicate regions of colocalization. […] Nuclei were stained by Hoescht. Scale bar, 10 Fluorescence intensity was measured across the dotted line and normalized to the maximum value in each channel. Arrows indicate regions of colocalization. The inset show only the ch735 and DNA channels of the boxed region. […] Scale bar, 10 Fluorescence intensity was measured across the dotted white line and normalized to the maximum value in each channel. […]
FIGS. 12A-12C depict colocalization of mo735 with markers that traffic to endolysosomal compartments. […] Following fixation and permeabilization, LAMP-1 antibody was applied and detected with anti-rabbit AF647 secondary. […] Cross-sectional fluorescence profiles are shown at right with normalized pixel intensity for selected cells (marked with box in left confocal panels) versus distance across the cell for representative cross sections (marked with bar in right confocal panels).
SH—SY5Y or SW2 cells were plated at 20,000 cells/cm^2 on poly-L-lysine coated 35 mm glass bottom dishes and adhered overnight. […] The fluorescence intensity of the plot profile was analyzed using FIJI software. […]

Molecule	compartments of accumulation after internalization (confocal) [1]	population (FL1-H-) binding below the level of wild-type SW2 cells [2] [%]	compartments of accumulation after internalization (confocal) [3]
B1	compartmentalized in early and recycling endosomes	68	–
B2	–	–	rapidly internalized in endosomal/lysosomal compartments
